In test [1] the target is Trastuzumab (anti-HER2/neu IgG). The test can be described thus: flow cytometry on HER2-expressing cells, FITC signal of cHBL-tagged trastuzumab. A general note: In flow cytometry, cells or beads pass a laser one at a time.
The target is the same in test [2]. As to the kind of experiment: fluorescence quenching: ligand titrated into trastuzumab, F/F0 against Ligand (nM).
Test [3] has the same target. The test can be described thus: fluorescence quenching, ligand titrated into 30 nM trastuzumab.
Test [4] shares this target. The test can be described thus: fluorescence quenching, ligand titrated into 30 nM trastuzumab; apparent Kd.
For test [5] the target is unchanged. The test can be described thus: fluorescence quenching.
The target is the same in test [6]. The test can be described thus: method not stated in the legend.

Ends that are not written are not given here.

B1: Trast-cHBL (Peptide-…) (peptide)
peptide: LLGPYELWELSH
modifications: also: 5(6)-carboxyfluorescein via EG2 spacer, EG6x2 spacer on peptide, branching Lys with 2-naphthaleneacetic acid on alpha-amine and EG4-isothiocyanate on epsilon-amine, attachment sites not given here
As to B1, the percent of maximum FITC signal at 1 µM cHBL in test [1] amounted to 50%.

B2: Trast-DNP (Trastuzumab binding peptide tagged with DNP) (peptide)
peptide: LLGPYELWELSH
modifications: not fully specified (C-terminus); also: DNP attached via EG2 spacer, attachment site not given here
In the case of B2, the EC50 (read off the curve) (as a rule, the concentration giving half of the maximal effect) in test [2] amounted to 200 nM. In test [3], this molecule registered a Kd of 200 nM.

B3: Trast-Napht-DNP (peptide)
peptide: LLGPYELWELSH
modifications: also: DNP attached via EG2 spacer, 2-naphthaleneacetic acid attached via ethylene glycol spacer, attachment sites not given here
Consider B3, for which the Kd in test [4] worked out at 46.6 nM. For the same molecule, in test [5], the fold increase in observed affinity against the peptide without napht was greater than 4 fold. In test [2], this molecule had an EC50 (read off the curve) of 50 nM. Molecule LLGPYELWELSH [Trastuzumab binding peptide …] displayed a Kd in test [6] of 1200 nM.
